{"source": "patent US20160130327A1", "key": {"[1]": {"target": "revertant virus (AD169 CMV with the pentameric gH complex restored)", "assay": "antibody-titration EIA, coated revertant virions"}, "[2]": {"target": "revertant virus (AD169 CMV with the pentameric gH complex restored)", "assay": "cell-based or functional assay"}}, "data": [{"substance": "human polyclonal CMV hyperimmune IgG (HIG, CytoGam) (antibody)", "values": [{"measurement": "EC50", "setting": "[1]", "result": 2, "unit": "µg/mL"}, {"measurement": "EC50 neutralizing (ARPE-19 cells)", "setting": "[2]", "result": 1, "unit": "µg/mL"}]}]}
